In the DeepSol protein solubility set:

Assay: soluble on expression in E. coli; label from the status in PepcDB or PDB records

Soluble on expression in E. coli, not soluble:
MGSDKIHHHHHHMEFMKQLGSCCQYCAYPLSDDTYLVCGQCVRKRPSFDSAYIAYRFEEPLRSLIHQFKYHNGLYLASFLKQLLLNALPKNALKPDCLIPVPMHPKRLKRRGFNQAGVLTRLLARQLNIPYDLYYCQKIINTASQANLDGEQRRKNLRHAFYVSAVTYEHVMIVDDLLTTGSTANEMAHTLKNAGVKRVDICCCARAVTKN
MGSDKIHHHHHHMEHISQLTAEIRDKAAYPDILVISRIFLPKEAVIGEYMYNRCLQDPERVIVLAASCSGDKVFDEGQQFPVYRWFYPRYWRSGFVGNILKPFVNIVCSFVLAIKLYFRYHYRYIEWGHGYDFPSLLLLSYLLPIRFFIYLHGNDFLCTLHNPVLRSLFKLTLKRAEGIVCNSSYTQDYLRTALRLDTPTYVINPVIRPEKFGNNVGSPSSLDDLRVRVRQAYNIPDSAIVILSIGRLVKHKAFDQVIDNIPLLLTFGVDVHYIICGEGPSESELKSLVHRLRVDKCVHFAGYVAERELAGYYAACDIFAMLTLLDSKPNNMEGFGMVYLEASYFGKPIIAPRLGGVLDTVQHEENGILVNPNSGYEVFQAFNRLCKDQQLREQLGRKGKELAKRRTLHRSLYKSEGKNPIL
MGSDKIHHHHHHMEHLHRKQITNTFTETFPGDLSMNNTTRQTPGVLYCSVLPTPVHHPQLLAWSADVAEMLGLESPVPEDVLILGGNTVNPTMKPYASCYAGHQFGNWAGQLGDGRAISLGFCSGKDSMEYELQLKGAGPTPYSRNSDGRAVLRSSLREYLMSEAMHYLGVPTTRALSLVSTGDAVLRDMFYNGHAAYEPGAVVLRVAPSFIRFGNFEILAERNNRDLSQQLCDWVITRYYPEIRGEDRVVQLFQAVAERTADMVVQWLRVGFVHGVMNTDNMSILGVTIDYGPYSFVDEYDARFTPNTTDLPGRRYAFGNQAAVAYWNLGRLANALAFLVPETDKLVAVLKNYQDVYETKYYTMMANKLGFDALREDDRLLIDSFEEMLRTVKPDMTMFYQLLIDLPADPGTAADVKQFFQSCFYTEADEALLHTCIAAYSKRIKTNTCSKEVSAEKMRAANPRFVLRNYILHEAIEKLEKGDDALLKKLEEYIKQPYSKNADEYFIKRPDWAAQKAGCSMLSCSS
MGSDKIHHHHHHMEKFKGALVVGALRLFALLPWRAVQGVGAGIGWLMWKLPNRSREVVRINLSKCFPELSETELEKLVGQSLMDIGRTLTESACAWIWPPEKSLRYIREVEGMEVLEEALASGDGLVGITSHLGNWEVLNHFYCSYAKPIIFYRPPKLKAVDELLKKQRVQLGNRVAPSTPEGILSVIKEVKKGGCVGIPADPEPARTAGLFVPYLGTTALISKFVPQLLSRGKARGVFFHAVRLPDGSGYKVILEAAPADMYDKDLEVSVAAMSRELAKYVRAYPSQYMWSMKRFKNRPDGEKKWY
MGSDKIHHHHHHMEKLNFGIPEWAFEFHGHKCPYMPMGYRAGSYALKIAGLEKEKDHRTYLLSEMSPEDMNGCFNDGAQAATGCTYGKGLFSLLGYGKLALILYRPGRKAIRVHVRNSFMDELSTRASDFFRYRKQGYEPSEIPAGAIDPVLEWISSLEDEEIFEYREIDGFTFEPVKKNGAKVRCDVCGEYTYEADAKLLNGKPVCKPDYYGKK
MGSDKIHHHHHHMEKQSDSYYISAVQAGDTESFAPLVERYSDMLYALLCRLLQDEEDAADLLQDTFVKAFRHISRFDGRSSFSTWIYRIAYNEAIDHLRRHKAYVTDRVEELPDVPDEDLEPSGEDPELLQQALDSLPAADKALLLMFYSDDLSVRDIAEVTGMSESNVKVKLHRLRTKLYKMMRK
MGSDKIHHHHHHMEKQVATSIFESLSSGLRLDVFRLLVKKGPDGMVAGEIANALDVPPANLSFHLKALSQARLVTVEQEGRFQRYRADIPLMLDLIAYLTDECCTGSPAKCVEKVAASNCAKELLPPPVTHSNESDNMNILFLCTGNSCRSILAEAVFNHLAPTGWKAMSAGSQPTGTVHPRSLALLAREGIDTNGLHSKSWDNLPQVPDVVITVCSNAAGETCPAYLGAVLRAHWGVDDPAHATGTEAEIEAAFTAAYRILRRRIEAFLALPLVELARDRTRLKAELDRIGALSA
MGSDKIHHHHHHMEKSIQDTIHGVIKLEDWMVEIVDTPQFQRLRRINQLGFANLVYPGANHTRFEHSLGVMHVTRILQERMGFDDVVVAAALLHDVGHAPFSHGSERLLEKYASYNHETISKVVRGELKDVLKNLGFRISEIEAIVTGKRRSVVNGEIDADRMDYLVRDSHYTGVAYGVFDIYRLIDKIKFDGAVVIEQGGVKAAESLLISRFLMYPTVYFHHVCRIARKMYERAMERIIEAGFEAENLLEMDDVDAMMLLKEKERETYDRLNNRRLFKRAIYVSRRSLDFREVMRTSERRAEREVAEMAGVDERYVIVDIPPVEEMRESGVMVDTESGLKPLEEVSPLVKALKDAAVENWRLGVYTDRRFVDKVGKAAADYFGIEKVVQKSLDEIFPQ
MGSDKIHHHHHHMELEEIVDSERNIHKTIEVLGKGGQGIVYRCLDKDVAIKVVLRDGDFIKDKESLKQYEKSVLNLSFKPIESHFPMSIPLVTLKEKQGYVMKMAEGYEPLKTFLKKPSILENEEKDGIFRINNAIQELCKDNHYMTLSLSYYSQTQGLRSRLKILTHLAKLLFRLQSKGLVYGDLNLNNVFYKDNSAFLIDADNVRYESEKALCVIFTPNYGALEISQTSKNSDTTNYNTMLSDTFSFAIITYELLNMVHPFDGNKADDSVENFIELPWIEDRKDDSNRSCGLLPFFLTRDLKNLLA
MGSDKIHHHHHHMELIEILLKKLNKNAVVTEIAKDKDPFKVLISTIISARTKDEVTEEVSKKLFKEIKDVDDLLNIDEEKLADLIYPAGFYKNKAKNLKKLAKILKENYNGKVPDSLEELLKLPGVGRKTANLVITLAFNKDGICVDTHVHRICNRWEIVDTETPEETEFELRKKLPKKYWKVINNLLVVFGREICSSKSKCDKCFKEIKEKCPYYEKIKHFENILKKFNFRKVSKNKIPNEKGTYILKIRLKEGKKIKFGKTERFFKKGYYFYIGSAFGNSMNLKNRIERHLKDDKKMHWHIDYLLKYGKIEEIYITNERVECEVANEFIKKFDFVENFGCSDCKCKSHLFYLKP
MGSDKIHHHHHHMENKYLVSIIVPVHNTADYLHKCIESLRSQTLQQIEIILVDNLSVDGSSEICDEYAKIDKRIKVLHLSIAGLSIARNAGMRIASAPYIGFVDSDDYVEPAMFEKMLDAMVQSDAEIAYCNFLLEYEFKPNESPYRNSGDIVIRDPKNVLQDMMMEKVSCSACTKLYKSGFLTSLQFPEGKNYEDRLVMYEWVALCKKVVWVDSPFYHYVERQTSICHTMSPMNLYHYFLAEYARMRFMEKYSLFEEEDLFKIRTRLIGTCLTIFKEILLKVNLREFKEPVKDMRQKMKEIAALPEDTYELKYRRRVRKIAYHWHLYYLTHFLFKKGGDS
MGSDKIHHHHHHMENLGDRLEVVAELSLAPGNITLTPDGRLFLSLHQFYQPEMQVAELTQDGLIPFPPQSGNAIITFDTVLGIKSDGNGIVWMLDNGNQSKSVPKLVAWDTLNNQLSRVIYLPPPITLSNSFVNDLAVDLIHNFVYISDPAPDDKAALIRVDLQTGLAARVLQGYPGIAPEDIDLVIDGVPVQIGQPDGTVIRPHLGVNGIVLDAENEWLYLSPMHSTSMYRIKSADLSNLQLTDAELGSKIERYSEKPICDGISIDKDHNIYVGDLAHSAIGVITSADRAYKLLVTDEKLSWTDSFNFGSDGYLYFDCNQLHHSAPLNAGENISAPPYYIFRLKPLAAGIVGR
MGSDKIHHHHHHMENQDYTVRLTVQASPQEVFKQINRVTAWWTKNLQGDSEKLNDVFTVNFPGMHVSTQKLIECIPDKKVTWMVTDSHLTFIQRKTEWTDTTIQFDISRNVKHTEVLFTHKGLNPAIECYGDCAKGWDYFIKGSLFKLLTEGTGTPE
